T1: Biotin-FcγRIIB (human, UniProt P31994 43-217, limits assumed, biotin-labelled)
T1 construct: Bought, biotin-labelled; used at 1 µg/ml for staining and sorting; also called human FcγRIIB; CD32b
T1 sequence (looked up): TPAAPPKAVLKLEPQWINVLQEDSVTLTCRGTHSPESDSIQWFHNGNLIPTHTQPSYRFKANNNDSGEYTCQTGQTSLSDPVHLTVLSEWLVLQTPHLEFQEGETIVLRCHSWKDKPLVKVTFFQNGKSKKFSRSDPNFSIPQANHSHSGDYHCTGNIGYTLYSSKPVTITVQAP


Legend:
Biotin-FcγRIIB [1] = biological target: T1, Biotin-FcγRIIB; experiment: FACS sorting of displayed Fc library on biotin-FcγRIIB, NGS
Biotin-FcγRIIB [2] = biological target: T1, Biotin-FcγRIIB; experiment: FACS sorting of displayed Fc library on biotin-FcγRIIB, NGS; reference G327A

Row | Enrichment factor (after/before sorting) (Biotin-FcγRIIB [1]) | Increased factor a (enrichment factor/wild-type enrichment factor) (Biotin-FcγRIIB [1]) | Increased factor 2 c Site 1 (combined/point mutation) (Biotin-FcγRIIB [2]) | Binder
1 | 29.2 | 19.5 | 5.8 | human IgG2 anti-mouse CD40 surface displayed antibody, Fc mutant G327A/I332A (antibody, name in EU numbering, as m1; positions are Eu numbers; copies: 2 + 2) light chain (with the P2A rest): DTVLTQSPALAVSPGERVTISCRASDSVSTLMHWYQQKPGQQPKLLIYLASHLESGVPARFSGSGSGTDFTLTIDPVEADDTATYYCQQSWNDPWTFGGGTKLELKRTVAAPSVFIFPPSDEQLKSGTASVVCLLNNFYPREAKVQWKVDNALQSGNSQESVTEQDSKDSTYSLSSTLTLSKADYEKHKVYACEVTHQGLSSPVTKSFNRGECGSGATNFSLLKQAGDVEENPG heavy chain: EVQLVESDGGLVQPGRSLKLPCAASGFTFSDYYMAWVRQAPTKGLEWVASISYDGSSTYYRDSVKGRFTISRDNAKSTLYLQMDSLRSEDTATYYCGRHSSYFDYWGQGVMVTVSSASTKGPSVFPLAPCSRSTSESTAALGCLVKDYFPEPVTVSWNSGALTSGVHTFPAVLQSSGLYSLSSVVTVPSSNFGTQTYTCNVDHKPSNTKVDKTVERKCCVECPPCPAPPVAGPSVFLFPPKPKDTLMISRTPEVTCVVVDVSHEDPEVQFNWYVDGVEVHNAKTKPREEQFNSTFRVVSVLTVVHQDWLNGKEYKCKVSNKALPAPAEKTISKTKGQPREPQVYTLPPSREEMTKNQVSLTCLVKGFYPSDIAVEWESNGQPENNYKTTPPMLDSDGSFFLYSKLTVDKSRWQQGNVFSCSVMHEALHNHYTQKSLSLSPGKLEPPPSTVSNMATVAVLVVLGAAIVTGAVVAFVMKMRRRNTGGKGGDYALAPGSQTSDLSLPDCKVMVHDPHSLA
2 | 11.4 | 7.64 | 2.3 | human IgG2 anti-mouse CD40 surface displayed antibody, Fc mutant G327A/I332C (antibody, name in EU numbering, as m1; positions are Eu numbers; copies: 2 + 2) light chain (with the P2A rest): DTVLTQSPALAVSPGERVTISCRASDSVSTLMHWYQQKPGQQPKLLIYLASHLESGVPARFSGSGSGTDFTLTIDPVEADDTATYYCQQSWNDPWTFGGGTKLELKRTVAAPSVFIFPPSDEQLKSGTASVVCLLNNFYPREAKVQWKVDNALQSGNSQESVTEQDSKDSTYSLSSTLTLSKADYEKHKVYACEVTHQGLSSPVTKSFNRGECGSGATNFSLLKQAGDVEENPG heavy chain: EVQLVESDGGLVQPGRSLKLPCAASGFTFSDYYMAWVRQAPTKGLEWVASISYDGSSTYYRDSVKGRFTISRDNAKSTLYLQMDSLRSEDTATYYCGRHSSYFDYWGQGVMVTVSSASTKGPSVFPLAPCSRSTSESTAALGCLVKDYFPEPVTVSWNSGALTSGVHTFPAVLQSSGLYSLSSVVTVPSSNFGTQTYTCNVDHKPSNTKVDKTVERKCCVECPPCPAPPVAGPSVFLFPPKPKDTLMISRTPEVTCVVVDVSHEDPEVQFNWYVDGVEVHNAKTKPREEQFNSTFRVVSVLTVVHQDWLNGKEYKCKVSNKALPAPCEKTISKTKGQPREPQVYTLPPSREEMTKNQVSLTCLVKGFYPSDIAVEWESNGQPENNYKTTPPMLDSDGSFFLYSKLTVDKSRWQQGNVFSCSVMHEALHNHYTQKSLSLSPGKLEPPPSTVSNMATVAVLVVLGAAIVTGAVVAFVMKMRRRNTGGKGGDYALAPGSQTSDLSLPDCKVMVHDPHSLA
3 | 126 | 84.1 | 24.9 | human IgG2 anti-mouse CD40 surface displayed antibody, Fc mutant G327A/I332E (antibody, name in EU numbering, as m1; positions are Eu numbers; copies: 2 + 2) light chain (with the P2A rest): DTVLTQSPALAVSPGERVTISCRASDSVSTLMHWYQQKPGQQPKLLIYLASHLESGVPARFSGSGSGTDFTLTIDPVEADDTATYYCQQSWNDPWTFGGGTKLELKRTVAAPSVFIFPPSDEQLKSGTASVVCLLNNFYPREAKVQWKVDNALQSGNSQESVTEQDSKDSTYSLSSTLTLSKADYEKHKVYACEVTHQGLSSPVTKSFNRGECGSGATNFSLLKQAGDVEENPG heavy chain: EVQLVESDGGLVQPGRSLKLPCAASGFTFSDYYMAWVRQAPTKGLEWVASISYDGSSTYYRDSVKGRFTISRDNAKSTLYLQMDSLRSEDTATYYCGRHSSYFDYWGQGVMVTVSSASTKGPSVFPLAPCSRSTSESTAALGCLVKDYFPEPVTVSWNSGALTSGVHTFPAVLQSSGLYSLSSVVTVPSSNFGTQTYTCNVDHKPSNTKVDKTVERKCCVECPPCPAPPVAGPSVFLFPPKPKDTLMISRTPEVTCVVVDVSHEDPEVQFNWYVDGVEVHNAKTKPREEQFNSTFRVVSVLTVVHQDWLNGKEYKCKVSNKALPAPEEKTISKTKGQPREPQVYTLPPSREEMTKNQVSLTCLVKGFYPSDIAVEWESNGQPENNYKTTPPMLDSDGSFFLYSKLTVDKSRWQQGNVFSCSVMHEALHNHYTQKSLSLSPGKLEPPPSTVSNMATVAVLVVLGAAIVTGAVVAFVMKMRRRNTGGKGGDYALAPGSQTSDLSLPDCKVMVHDPHSLA

— patent US20230220042A1 (SHANGHAI JIAO TONG UNIVERSITY SCHOOL OF MEDICINE, published 2023)
